Measurements taken from patent US20030096272A1, “Genes regulated by peroxisome proliferator-activated receptor gamma agonist” (Incyte Genomics, Inc., priority 2001, published 2003).

Experiments:
[1] = system: adipocytes obtained from normal donors; experiment: microarray differential expression in PPARγ agonist-treated adipocytes, normal donor; format: cell-based, human
Source text: (§1) Incyte clones represent template sequences derived from the LIFESEQ GOLD assembled human sequence database (Incyte Genomics). In cases where more than one clone was available for a particular template, the 5′-most clone in the template was used on the microarray. The HUMAN GENOME GEM series 1-5 microarrays (Incyte Genomics) contain 45,320 array elements which represent 22,632 annotated clusters and 22,688 unannotated clusters. For the UNIGEM series microarrays (Incyte Genomics), Incyte clones were mapped to non-redundant Unigene clusters (Unigene database (build 46), NCBI; Shuler (1997) J Mol Med 75:694-698), and the 5′ clone with the strongest BLAST alignment (at least 90% identity and 100 bp overlap) was chosen, verified, and used in the construction of the microarray. The UNIGEM V 2.0 microarray (Incyte Genomics) contains 8,502 array elements which represent 8,372 annotated genes and 130 unannotated clusters.
(§2) To construct microarrays, cDNAs were amplified from bacterial cells using primers complementary to vector sequences flanking the cDNA insert. Thirty cycles of PCR increased the initial quantity of cDNAs from 1-2 ng to a final quantity greater than 5 μg. Amplified cDNAs were then purified using SEPHACRYL-400 columns (APB). Purified cDNAs were immobilized on polymer-coated glass slides. Glass microscope slides (Coming, Corning N.Y.) were cleaned by ultrasound in 0.1% SDS and acetone, with extensive distilled water washes between and after treatments. Glass slides were etched in 4% hydrofluoric acid (VWR Scientific Products, West Chester Pa.), washed thoroughly in distilled water, and coated with 0.05% aminopropyl silane (Sigma-Aldrich) in 95% ethanol. Coated slides were cured in a 110° C. oven. cDNAs were applied to the coated glass substrate using a procedure described in U.S. Pat. No. 5,807,522. One microliter of the cDNA at an average concentration of 100 ng/ul was loaded into the open capillary printing element by a high-speed robotic apparatus which then deposited about 5 nl of cDNA per slide.
(§3) Microarrays were UV-crosslinked using a STRATALINKER UV-crosslinker (Stratagene), and then washed at room temperature once in 0.2% SDS and three times in distilled water. Non-specific binding sites were blocked by incubation of microarrays in 0.2% casein in phosphate buffered saline (Tropix, Bedford Mass.) for 30 minutes at 60° C. followed by washes in 0.2% SDS and distilled water as before.
(§4) Primary cultures of preadipocytes were obtained from subcutaneous fat obtained from a person with a body mass index (BMI; kg/m^2) of 23.59 and from a person with a BMI of 32.47. Individuals with a BMI between 18.5 and 24.9 are classified as ‘healthy’ or normal, whereas individuals with a BMI between 30.0 and 39.9 are classified as obese. Preadipocytes were cultured in F-10 medium with 10% fetal bovine serum. Confluent cells were either treated with 1 μM rosiglitazone (BRL49653), 0.2 mM IBMX, and 100 nM human insulin for 3 days; or remained untreated. Thereafter, the cells were cultured in F-10 medium with 3% fetal bovine serum and 100 nM human insulin. Differentiated adipocytes were compared to untreated preadipocytes maintained in culture in the absence of inducing agents. Between 80% and 90% of the preadipocytes observed under a phase contrast microscope had differentiated to adipocytes by day 15. Cells were harvested at 1, 2, 8, and 15 days post treatment.
(§5) Cells were harvested and lysed in 1 ml of TRIZOL reagent (5×10^6 cells/ml; Invitrogen). […]

[2] = system: adipocytes obtained from obese donors; experiment: microarray differential expression in PPARγ agonist-treated adipocytes, obese donor; format: cell-based, human
Source text: as §1, §2, §3, §4, §5

Molecule | regulation in response to PPARγ agonist (in words) ([1]; adipocytes from normal donors) | regulation in response to PPARγ agonist (in words) ([2]; adipocytes from obese donors) | differential expression, Normal 1 d ([1]; normal-donor adipocytes treated with PPARγ agonist (1 μM rosiglitazone, 0.2 mM IBMX, 100 nM insulin), 1 day, relative to untreated time-matched controls, negative = downregulation) [log base 2] | differential expression, Normal 2 d ([1]; normal-donor adipocytes treated with PPARγ agonist (1 μM rosiglitazone, 0.2 mM IBMX, 100 nM insulin), 2 days, relative to untreated time-matched controls, negative = downregulation) [log base 2] | differential expression, Normal 8 d ([1]; normal-donor adipocytes treated with PPARγ agonist (1 μM rosiglitazone, 0.2 mM IBMX, 100 nM insulin), 8 days, relative to untreated time-matched controls, negative = downregulation) [log base 2] | differential expression, Normal mean ([1]; normal-donor adipocytes treated with PPARγ agonist, averaged over 1, 2, 8 and 15 days) [log base 2] | differential expression, Obese 1 d ([2]; obese-donor adipocytes treated with PPARγ agonist (1 μM rosiglitazone, 0.2 mM IBMX, 100 nM insulin), 1 day, relative to untreated time-matched controls, negative = downregulation) [log base 2] | differential expression, Obese 2 d ([2]; obese-donor adipocytes treated with PPARγ agonist (1 μM rosiglitazone, 0.2 mM IBMX, 100 nM insulin), 2 days, relative to untreated time-matched controls, negative = downregulation) [log base 2] | differential expression, Obese 8 d ([2]; obese-donor adipocytes treated with PPARγ agonist (1 μM rosiglitazone, 0.2 mM IBMX, 100 nM insulin), 8 days, relative to untreated time-matched controls, negative = downregulation) [log base 2] | differential expression, Obese mean ([2]; obese-donor adipocytes treated with PPARγ agonist, averaged over 1, 2, 8 and 15 days) [log base 2]
SEQ ID NO:29: cDNA, template 235636.1, represented by clone 3075694; integrin binding protein Del-1 | unchanged | downregulated |  |  |  |  |  |  |  | 
5425777 (nucleic acid, listed as Homo sapiens, Incyte ID No 5425777CA2) DNA: CCCAGACACAAGTCTTCACTCCTTCCTGCGAGCCCTGAGGAAGCCTTCTTTCCCCAGACATGGCCAACAAGGGTCCTTCCTATGGCATGAGCCGCGAAGTGCAGTCCAAAATCGAGAAGAAGTATGACGAGGAGCTGGAGGAGCGGCTGGTGGAGTGGATCATAGTGCAGTGTGGCCCTGATGTGGGCCGCCCAGACCGTGGGCGCTTGGGCTTCCAGGTCTGGCTGAAGAATGGCGTGATTCTGAGCAAGCTGGTGAACAGCCTGTACCCTGATGGCTCCAAGCCGGTGAAGGTGCCCGAGAACCCACCCTCCATGGTCTTCAAGCAGATGGAGCAGGTGGCTCAGTTCCTGAAGGCGGCTGAGGACTATGGGGTCATCAAGACTGACATGTTCCAGACTGTTGACCTCTTTGAAGGCAAAGACATGGCAGCAGTGCAGAGGACCCTGATGGCTTTGGGCAGCTTGGCAGTGACCAAGAATGATGGGCACTACCGTGGAGATCCCAACTGGTTTATGAAGAAAGCGCAGGAGCATAAGAGGGAATTCACAGAGAGCCAGCTGCAGGAGGGAAAGCATGTCATTGGCCTTCAGATGGGCAGCAACAGAGGGGCCTCCCAGGCCGGCATGACAGGCTACGGACGACCTCGGCAGATCATCAGTTAGAGCGGAGAGGGCTAGCCCTGAGCCCGGCCCTCCCCCAGCTCCTTGGCTGCAGCCATCCCGCTTAGCCTGCCTCACCCACACCCGTGTGGTACCTTCAGCCCTGGCCAAGCTTTGAGGCTCTGTCACTGAGCAATGGTAACTGCACCTGGGCAGCTCCTCCCTGTGCCCCCAGCCTCAGCCCAACTTCTTACCCGAAAGCATCACTGCCTTGGGCCCCTCCCTCCCGGCTGCCCCCATCACCTCTACTGTCTCCTCCCTGGGCTAAGCAGGGGAGAAGCGGGCTGGGGGTAGCCTGGATGTGGGCCAAGTCCACTGTCCTCCTTGGCGGCAAAAGCCCATTGAAGAAGAACCAGCCCAGCCTGCCCCCTATCTTGTCCTGGAATATTTTTGGGGTTGGAACTCAAAAAAAAAAAAGGGGGGGCCCGCGCGTTTATTGTGCCTTCTTCAGACCCCGGGAATTAATTCCCGACCGGATACCTTGGCAGCTATATTGAATCTTGCAACCGTTTAACTTACCATTTTTTGCCTCAGCCCGGTGTTTCTGGCTTGTTTGGGAAGCCGGTTGGTCCTCTTTGGTGTTCCGTTCCACGCGAAAAGGTTTAGACAGACTTCCGGAACACTTCCGGGTTCCCCAGACACCAGCTTCTTTGTTAGGGTCCCCACCGGTCATTGTCGCCCGGATCGCTTGGTCCACCGGCGCGGTTAACGTTTTTTCAGCCGGGCGATGTCA |  |  | −2.16 | −3.01 | −0.23 | −1.80 | −2.55 | −3.20 | −2.02 | −2.59
